This note sets out measurements from US20240228612A1 (SICHUAN KELUN BIOTECH BIOPHARMACEUTICAL, published 2024).

Where a chain is given by its changes, count along the chain named. Read-outs that look alike come from different tables or passages of the source.

The target of test [1] is T1, cynomolgus monkey Nectin-4 protein (cynomolgus monkey).
T1 construct: also called cynomolgus monkey Nectin-4 antigen
Put plainly: BLI (Octet Fortebio), antibody on ProA sensor, Nectin-4 as analyte, 1:1 global fit. How it is done: (§1) The dynamic affinity of anti-human Nectin-4 humanized monoclonal antibodies was detected using Octet Fortebio®. The main steps comprised: firstly, the anti-human Nectin-4 humanized monoclonal antibody (concentration of 5 μg/mL) was immobilized on ProA sensor, then subjected to binding reaction with human or cynomolgus monkey Nectin-4 (gradiently diluted to 400 nM, 200 nM, 100 nM, 50 nM, 25 nM, 12.5 nM, 6.25 nM, 0 nM), and the anchored product in the solid phase obtained through fully reaction was subjected to dissociation reaction in PBST buffer. After the completion of the experiment, the results were analyzed by using Data Analysis 11.0 software at 1:1 mode to perform global fitting, thereby obtaining the affinity constant of antibody to antigen.

Test [2] concerns the target T2, human Nectin-4 protein (human, UniProt Q96NY8 32-349).
T2 construct: Purified protein used for coating in ELISA and as analyte in Octet; also called human Nectin-4 antigen
T2 sequence (looked up): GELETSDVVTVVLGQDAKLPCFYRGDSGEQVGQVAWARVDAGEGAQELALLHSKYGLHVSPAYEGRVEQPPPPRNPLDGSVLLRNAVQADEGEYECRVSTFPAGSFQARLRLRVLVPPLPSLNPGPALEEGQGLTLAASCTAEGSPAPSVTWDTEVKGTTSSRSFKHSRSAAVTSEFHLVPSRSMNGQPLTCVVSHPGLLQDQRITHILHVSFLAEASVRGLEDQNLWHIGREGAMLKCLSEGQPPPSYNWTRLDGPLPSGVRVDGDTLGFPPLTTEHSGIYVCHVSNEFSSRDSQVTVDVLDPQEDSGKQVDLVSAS
The test is described as above. Here is the method:
as §1

Test [3] deals with T2, human Nectin-4 protein. Put plainly: ELISA, coated human Nectin-4, anti-human-HRP.
The target in test [4] is T3, human Nectin-4 on cell membrane surface (human, UniProt Q96NY8 32-510).
T3 construct: whole, on cells; also called A549-Nectin-4; T24-Nectin-4
T3 sequence (looked up): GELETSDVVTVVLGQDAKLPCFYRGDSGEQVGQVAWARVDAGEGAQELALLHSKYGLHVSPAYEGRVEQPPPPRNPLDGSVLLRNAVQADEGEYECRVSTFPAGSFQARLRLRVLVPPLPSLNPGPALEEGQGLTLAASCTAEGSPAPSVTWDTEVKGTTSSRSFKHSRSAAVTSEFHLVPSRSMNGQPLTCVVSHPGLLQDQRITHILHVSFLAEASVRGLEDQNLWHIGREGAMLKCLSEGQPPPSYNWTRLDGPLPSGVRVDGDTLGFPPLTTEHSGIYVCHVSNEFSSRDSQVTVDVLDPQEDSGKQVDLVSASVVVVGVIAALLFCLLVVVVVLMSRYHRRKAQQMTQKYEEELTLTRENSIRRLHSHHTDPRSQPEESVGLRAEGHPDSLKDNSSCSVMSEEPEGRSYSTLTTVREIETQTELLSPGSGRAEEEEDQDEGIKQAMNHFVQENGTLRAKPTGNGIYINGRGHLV
Put plainly: flow cytometry on T47D cells. Here is the method: The specific steps were as follows: T47D cells were digested, resuspended by centrifugation, and washed twice with PBS; the cells were resuspended in PBS (containing 1% BSA), and spread into a 96-well tip-bottom plate at 3×10⁵ cells/well, with a volume of 50 μl per well; 50 μL of the antibody to be tested was added to each well, starting at a final concentration of […], 4-fold gradient dilution, a total of 10 concentration points; Human IgG was used as a negative control; after being mixed well, the resulting mixture was reacted in the dark at 4° C. for 1 hour; washing was performed 3 times with PBS, FITC-labeled anti-human Fc secondary antibody (brand: BioLegend, product number: 409322) was added, incubated at 4° C. for 0.5 hours in the dark; washing was performed 3 times with PBS, and detection was carried out using a flow cytometer (flow cytometer brand: Beckman, model: Cytoflex).
A general note: In flow cytometry, cells or beads pass a laser one at a time.

Test [5] deals with T1, cynomolgus monkey Nectin-4 protein. Nature of the test: ELISA, coated antigen. An excerpt:
(§2) The affinity of anti-human Nectin-4 humanized monoclonal antibodies to Nectin-4 protein of different species was detected by ELISA.
For orientation: An ELISA detects its analyte on a solid surface through an enzyme-linked reagent.

Test [6] concerns the target T2, human Nectin-4 protein. Nature of the test: ELISA, coated antigen.
Excerpt: as §2

Test [7] concerns the target T2, human Nectin-4 protein. Nature of the test: ELISA, coated human Nectin-4, anti-human-HRP. The source holds these as a separate data set.
Test [8] deals with T1, cynomolgus monkey Nectin-4 protein. Put plainly: ELISA, coated cynomolgus monkey Nectin-4, anti-human-HRP.
Test [9] has the same target. The description is as above. The source holds these as a separate data set.
In test [10] the target is T2, human Nectin-4 protein. Nature of the test: competitive ELISA, coated Nectin-4; competitor biotin-labeled Nectin-1-hFc. Here is the method: Human Nectin-4 is linked to another Nectin-4 molecule or Nectin-1 molecule through the IgV domain. Because 31HZ, 56HZ and 74HZ all bind to the IgV domain of Nectin-4, the competitive activity of the three antibodies was detected by competitive ELISA. The specific steps were as follows: Nectin-4 protein was diluted to 2 μg/mL with CBS coating solution, 100 μL per well, and incubated at 37° C. for 2 hours; washing was performed once with 300 μL PBST, PBS (2% BSA) was then added, 100 μL per well, and incubation was performed at 37° C. for 2 hours; biotin-labeled Nectin-1-hFc was diluted with PBS (2% BSA) to 20 μg/mL; the antibody to be detected was diluted with PBS (2% BSA), wherein the dilution of 31HZ and 74HZ was started from 3.73 μg/mL, 3-fold dilution, and 9 concentration points, the dilution of 56HZ was started from 1.25 μg/mL, 2-fold dilution, and 10 concentration points; the above two diluted solutions were mixed well in equal volumes, and then added to the corresponding well at 100 μL/well, and incubation was performed at room temperature for 2 hours; washing was performed three times with 300 μL PBST; HRP-streptavidin was diluted with PBS (2% BSA) at a ratio of […], and added to the corresponding well at 100 μL/well, incubation was performed at room temperature for 1 hour; washing was performed five times with 300 μL of PBST; 100 μL of TMB was added to the corresponding well, color development was performed at room temperature for 10 minutes, and then terminated by adding 50 μL of 2N H₂SO₄, and a microplate reader was used for collecting readings at 450 nm.

The target of test [11] is T2, human Nectin-4 protein. Nature of the test: ELISA, coated human Nectin-4, anti-human-HRP. The source holds these as a separate data set.
Test [12] addresses T3, human Nectin-4 on cell membrane surface. Put plainly: flow cytometry on NCI-N87 cells.
The target in test [13] is T2, human Nectin-4 protein. Nature of the test: ELISA, coated human Nectin-4. Here is the method:
Human Nectin-4 (Sino Biological, Cat: 19771-H08H) was diluted to 1 μg/mL with carbonate (CBS) buffer, added to a 96-well plate at a volume of 100 μL/well, and placed at 4° C. for 16-20 h. The CBS buffer in the 96-well plate was discarded by pipetting, the plate was washed once with PBST (pH 7.4, PBS containing 0.05% Tween 20) buffer, added with 200 μL/well of skim milk powder (blocking solution) containing 2% PBST, incubated for 1 h at room temperature for blocking. The blocking solution was removed, and the plate was washed three times with PBST buffer. The anti-Nectin-4 mouse antibody to be tested was diluted with PBST/2% skim milk powder to an appropriate concentration, then added to the plate at a volume of 100 μL/well, and incubated at room temperature for 1.5 h. The reaction system was removed, and the plate was washed three times with PBST, and 50 μL/well of HRP-labeled goat anti-mouse IgG secondary antibody (purchased from the Jackson Laboratory) diluted with PBST/1% skim milk powder (dilution ratio 1:5000) was added, and incubated at room temperature for 1 h. After the plate was washed 3 times with PBST, 100 μL/well of TMB was added, and incubated at room temperature for 5-10 min for color development. The color development was stopped by adding 50 μL/well of 0.2 M sulfuric acid. Microplate reader was used to detect optical density (O.D.) at dual wavelengths 450/620 nm.

B1: Enfortumab (antibody, V domains shown)
VH: EVQLVESGGGLVQPGGSLRLSCAASGFTFSSYNMNWVRQAPGKGLEWVSYISSSSSTIYYADSVKGRFTISRDNAKNSLSLQMNSLRDEDTAVYYCARAYYYGMDVWGQGTTVTVSS
VL: DIQMTQSPSSVSASVGDRVTITCRASQGISGWLAWYQQKPGKAPKFLIYAASTLQSGVPSRFSGSGSGTDFTLTISSLQPEDFATYYCQQANSFPPTFGGGTKVEIKR
A word on the Kd: it is the concentration at which binding is half-saturated. What is called EC50 (read off the curve) is the concentration at which the effect is half-maximal. Broadly, the EC50 is the midpoint of the concentration-response curve. A word on the IC50: it is the concentration that inhibits the measured activity by half. Take B1: the dissociation constant Kd turned out to be 33.6 nM in [1] and 28.3 nM in test [2]. In addition, the concentration giving a half-maximal response (EC50 (read off the curve)) in test [3] was about 7 ng/mL; in [7], about 9 ng/mL; in test [8], about 7 ng/mL; in test [9], about 6 ng/mL; in test [11], about 5 ng/mL. In addition, the concentration giving a half-maximal response (EC50) in [4] was found to be 10.1 ng/mL; in [5], 6 ng/mL; in [6] it was 7.1 ng/mL; in [12] it was 22.1 ng/mL. The molecule also came in with a half-maximal inhibitory concentration (IC50) in [10] of 27.1 ng/mL.

B2: anti-human Nectin-4 murine monoclonal antibody 56# (antibody, V domains shown)
VH: QVQLKESGPGLVKPSQSLSLTCTVTGYSITSDYDWHWIRHFPGNMLEWMGYISFSGRTYYNPSLKSRISITHDTSKNHFFLRLNSVTTEDTATYYCARGNYDGFDYWGQGTTLTVSS
VL: DIQLTQSPAILSVSPGERVSFSCRASQNIGTSIHWYQHRTNGSPRLLIKFASESISGIPSRFSGSGSGTDFTLSINSVESEDIADYYCQQSKSWPTYTFGGGTKLEIK
notes: Murine antibody purified by Protein A from hybridoma supernatant
For B2, the 50% effective concentration (EC50) in test [13] was 0.0363 nM.

B3: anti-human Nectin-4 murine monoclonal antibody 31# (antibody, V domains shown)
VH: EVQLQQPGADLVRPGASVKLSCKASGYTFTDYWMNWVKLRPGQGLEWIGMIHPSDSETRLNQKFKDKATLTVDKSSSTAYMQLSSPTSEDSAVYYCARWDFRIYYAMDYWGQGTSVTVSS
VL: DVVITQSPSSLAMSVGQKVTMSCKSSQSLLNTNSQKNYLAWYQQKPGQSPKLLVYFASTRESGVPDRFIGSGSGTDFTLTITSVQAEDLADYFCQQHYSTPLTFGAGTKLEIK
notes: as for B2
B3 displayed a concentration for a half-maximal effect (EC50) in test [13] of 0.0549 nM.

B4: anti-human Nectin-4 murine monoclonal antibody 74# (antibody, V domains shown)
VH: EVQLQQPGAELVRPGASVKLSCKASGYTFINYWMNWVKQRPGQGLEWIGMIHPSDSATRLNQKFKDKATLTVDKSSSTAYMQLSSPTSEDSAVYYCARWGNFYTVNAWYYFDYWGHGTTLTVSS
VL: B3 VL with V2I, S28T, T32S, S34T, V54F, D76N, T82S
notes: as for B2
In test [13], B4 showed an EC50 of 0.0694 nM.
